# From patent US20150203577A1 (Chugai, published 2015)
# T1: mouse FcγRII (mouse, UniProt P08101 30-210)
# T1 construct: also called mFcγRII; mFcgRII
# T1 sequence: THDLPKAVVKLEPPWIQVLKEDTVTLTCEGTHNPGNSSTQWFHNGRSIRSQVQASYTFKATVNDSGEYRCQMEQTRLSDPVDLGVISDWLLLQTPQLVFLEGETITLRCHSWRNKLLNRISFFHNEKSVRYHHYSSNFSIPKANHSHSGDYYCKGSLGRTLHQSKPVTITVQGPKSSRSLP
# T2: mouse FcγRIII (mouse, UniProt P08508 31-215)
# T2 construct: also called mFcγRIII; mFcgRIII
# T2 chain: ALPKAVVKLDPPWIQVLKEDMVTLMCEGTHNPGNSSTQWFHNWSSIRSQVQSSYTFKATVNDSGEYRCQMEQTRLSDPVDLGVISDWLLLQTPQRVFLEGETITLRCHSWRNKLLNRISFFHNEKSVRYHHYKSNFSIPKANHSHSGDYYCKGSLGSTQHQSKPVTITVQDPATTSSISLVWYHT
# Tests used:
# mouse FcγRII = target: T1, mouse FcγRII; assay: SPR Biacore 4000, KD ratio
# Experimental: (§1) Each altered antibody was analyzed for its interaction with each Fcγ receptor prepared above using Biacore T100 (GE Healthcare Japan Corp.), Biacore T200 (GE Healthcare Japan Corp.), Biacore A100, or Biacore 4000. The running buffer used was HBS-EP+ (GE Healthcare Japan Corp.). The assay temperature was set to 25° C. The sensor chips used were chips prepared by immobilizing Protein L (ACTIGEN or BioVision) onto Series S Sensor Chip CM5 (GE Healthcare Japan Corp.) or Series S Sensor Chip CM4 (GE Healthcare Japan Corp.) by the amine coupling method.
# (§2) In order to calculate the KD value of each altered antibody for FcγR, kinetic analysis was conducted according to the following method: first, the antibody of interest was captured onto any of these chips and allowed to interact with mFcγR diluted with a running buffer. For the obtained sensorgram, the assay results were globally fit into the 1:1 Langmuir binding model using Biacore Evaluation Software to calculate an association rate constant ka (L/mol/s) and a dissociation rate constant kd (1/s). From these values, the dissociation constant KD (mol/L) was calculated.
# mouse FcγRIII = target: T2, mouse FcγRIII; assay: SPR Biacore 4000, KD ratio
# Experimental: as §1, §2
relative mFcγRII-binding activity (mIgG1 = 1) (mouse FcγRII) [fold],relative mFcγRIII-binding activity (mIgG1 = 1) (mouse FcγRIII) [fold],Binder
1.74,0.99,"MB118 (antibody, mouse IgG1, kappa, copies: 2 + 2) heavy: QVQLQESGPGLVKPSETLSLTCAVSGHSISHDHAWSWVRQPPGEGLEWIGFISYSGITNYNPSLQGRVTISRDNSKNTLYLQMNSLRAEDTAVYYCARSLARTTAMDYWGEGTLVTVSSAKTTPPSVYPLAPGSAAQTNSMVTLGCLVKGYFPEPVTVTWNSGSLSSGVHTFPAVLQSDLYTLSSSVTVPSSTWPSETVTCNVAHPASSTKVDKKIVPRDCGCKPCICTVPEVSMVFIFPPKPKDVLTITLTPKVTCVVVDISKDDPEVQFSWFVDDVEVHTAQTQPREEQFNSTFRSVSELPIMHQDWLNGKEFKCRVNSAAFPAPIEKTISKTKGRPKAPQVYTIPPPKEQMAKDKVSLTCMITDFFPEDITVEWQWNGQPAENYKNTQPIMDTDGSYFVYSKLNVQKSNWEAGNTFTCSVLHEGLHNHHTEKSLSHSPGK light: not shown"
1.54,1.2,"MB139 (antibody, mouse IgG1, kappa, copies: 2 + 2) heavy: QVQLQESGPGLVKPSETLSLTCAVSGHSISHDHAWSWVRQPPGEGLEWIGFISYSGITNYNPSLQGRVTISRDNSKNTLYLQMNSLRAEDTAVYYCARSLARTTAMDYWGEGTLVTVSSAKTTPPSVYPLAPGSAAQTNSMVTLGCLVKGYFPEPVTVTWNSGSLSSGVHTFPAVLQSDLYTLSSSVTVPSSTWPSETVTCNVAHPASSTKVDKKIVPRDCGCKPCICTVPEVSSQFIFPPKPKDVLTITLTPKVTCVVVDISKDDPEVQFSWFVDDVEVHTAQTQPREEQFNSTFRSVSELPIMHQDWLNGKEFKCRVNSAAFPAPIEKTISKTKGRPKAPQVYTIPPPKEQMAKDKVSLTCMITDFFPEDITVEWQWNGQPAENYKNTQPIMDTDGSYFVYSKLNVQKSNWEAGNTFTCSVLHEGLHNHHTEKSLSHSPGK light: not shown"
7.42,6.32,"MB143 (antibody, mouse IgG1, kappa, copies: 2 + 2) heavy: QVQLQESGPGLVKPSETLSLTCAVSGHSISHDHAWSWVRQPPGEGLEWIGFISYSGITNYNPSLQGRVTISRDNSKNTLYLQMNSLRAEDTAVYYCARSLARTTAMDYWGEGTLVTVSSAKTTPPSVYPLAPGSAAQTNSMVTLGCLVKGYFPEPVTVTWNSGSLSSGVHTFPAVLQSDLYTLSSSVTVPSSTWPSETVTCNVAHPASSTKVDKKIVPRDCGCKPCICTVPEVSSWFIFPPKPKDVLTITLTPKVTCVVVDISKDDPEVQFSWFVDDVEVHTAQTQPREEQFNSTFRSVSELPIMHQDWLNGKEFKCRVNSAAFPAPIEKTISKTKGRPKAPQVYTIPPPKEQMAKDKVSLTCMITDFFPEDITVEWQWNGQPAENYKNTQPIMDTDGSYFVYSKLNVQKSNWEAGNTFTCSVLHEGLHNHHTEKSLSHSPGK light: not shown"
1.16,1,"MB188 (antibody, mouse IgG1, kappa, copies: 2 + 2) heavy: QVQLQESGPGLVKPSETLSLTCAVSGHSISHDHAWSWVRQPPGEGLEWIGFISYSGITNYNPSLQGRVTISRDNSKNTLYLQMNSLRAEDTAVYYCARSLARTTAMDYWGEGTLVTVSSAKTTPPSVYPLAPGSAAQTNSMVTLGCLVKGYFPEPVTVTWNSGSLSSGVHTFPAVLQSDLYTLSSSVTVPSSTWPSETVTCNVAHPASSTKVDKKIVPRDCGCKPCICTVPEVSSVFIFPPKPKDVLTITLTPKVTCVVVDLSKDDPEVQFSWFVDDVEVHTAQTQPREEQFNSTFRSVSELPIMHQDWLNGKEFKCRVNSAAFPAPIEKTISKTKGRPKAPQVYTIPPPKEQMAKDKVSLTCMITDFFPEDITVEWQWNGQPAENYKNTQPIMDTDGSYFVYSKLNVQKSNWEAGNTFTCSVLHEGLHNHHTEKSLSHSPGK light: not shown"
1.48,0.94,"MB121 (antibody, mouse IgG1, kappa, copies: 2 + 2) heavy: QVQLQESGPGLVKPSETLSLTCAVSGHSISHDHAWSWVRQPPGEGLEWIGFISYSGITNYNPSLQGRVTISRDNSKNTLYLQMNSLRAEDTAVYYCARSLARTTAMDYWGEGTLVTVSSAKTTPPSVYPLAPGSAAQTNSMVTLGCLVKGYFPEPVTVTWNSGSLSSGVHTFPAVLQSDLYTLSSSVTVPSSTWPSETVTCNVAHPASSTKVDKKIVPRDCGCKPCICTVPEVSQVFIFPPKPKDVLTITLTPKVTCVVVDISKDDPEVQFSWFVDDVEVHTAQTQPREEQFNSTFRSVSELPIMHQDWLNGKEFKCRVNSAAFPAPIEKTISKTKGRPKAPQVYTIPPPKEQMAKDKVSLTCMITDFFPEDITVEWQWNGQPAENYKNTQPIMDTDGSYFVYSKLNVQKSNWEAGNTFTCSVLHEGLHNHHTEKSLSHSPGK light: not shown"
1.4,1.2,"MB162 (antibody, mouse IgG1, kappa, copies: 2 + 2) heavy: QVQLQESGPGLVKPSETLSLTCAVSGHSISHDHAWSWVRQPPGEGLEWIGFISYSGITNYNPSLQGRVTISRDNSKNTLYLQMNSLRAEDTAVYYCARSLARTTAMDYWGEGTLVTVSSAKTTPPSVYPLAPGSAAQTNSMVTLGCLVKGYFPEPVTVTWNSGSLSSGVHTFPAVLQSDLYTLSSSVTVPSSTWPSETVTCNVAHPASSTKVDKKIVPRDCGCKPCICTVPEVSSVYIFPPKPKDVLTITLTPKVTCVVVDISKDDPEVQFSWFVDDVEVHTAQTQPREEQFNSTFRSVSELPIMHQDWLNGKEFKCRVNSAAFPAPIEKTISKTKGRPKAPQVYTIPPPKEQMAKDKVSLTCMITDFFPEDITVEWQWNGQPAENYKNTQPIMDTDGSYFVYSKLNVQKSNWEAGNTFTCSVLHEGLHNHHTEKSLSHSPGK light: not shown"
1.58,0.94,"MB126 (antibody, mouse IgG1, kappa, copies: 2 + 2) heavy: QVQLQESGPGLVKPSETLSLTCAVSGHSISHDHAWSWVRQPPGEGLEWIGFISYSGITNYNPSLQGRVTISRDNSKNTLYLQMNSLRAEDTAVYYCARSLARTTAMDYWGEGTLVTVSSAKTTPPSVYPLAPGSAAQTNSMVTLGCLVKGYFPEPVTVTWNSGSLSSGVHTFPAVLQSDLYTLSSSVTVPSSTWPSETVTCNVAHPASSTKVDKKIVPRDCGCKPCICTVPEVSYVFIFPPKPKDVLTITLTPKVTCVVVDISKDDPEVQFSWFVDDVEVHTAQTQPREEQFNSTFRSVSELPIMHQDWLNGKEFKCRVNSAAFPAPIEKTISKTKGRPKAPQVYTIPPPKEQMAKDKVSLTCMITDFFPEDITVEWQWNGQPAENYKNTQPIMDTDGSYFVYSKLNVQKSNWEAGNTFTCSVLHEGLHNHHTEKSLSHSPGK light: not shown"
1.47,1.13,"MB161 (antibody, mouse IgG1, kappa, copies: 2 + 2) heavy: QVQLQESGPGLVKPSETLSLTCAVSGHSISHDHAWSWVRQPPGEGLEWIGFISYSGITNYNPSLQGRVTISRDNSKNTLYLQMNSLRAEDTAVYYCARSLARTTAMDYWGEGTLVTVSSAKTTPPSVYPLAPGSAAQTNSMVTLGCLVKGYFPEPVTVTWNSGSLSSGVHTFPAVLQSDLYTLSSSVTVPSSTWPSETVTCNVAHPASSTKVDKKIVPRDCGCKPCICTVPEVSSVWIFPPKPKDVLTITLTPKVTCVVVDISKDDPEVQFSWFVDDVEVHTAQTQPREEQFNSTFRSVSELPIMHQDWLNGKEFKCRVNSAAFPAPIEKTISKTKGRPKAPQVYTIPPPKEQMAKDKVSLTCMITDFFPEDITVEWQWNGQPAENYKNTQPIMDTDGSYFVYSKLNVQKSNWEAGNTFTCSVLHEGLHNHHTEKSLSHSPGK light: not shown"
6.19,2.42,"MB129 (antibody, mouse IgG1, kappa, copies: 2 + 2) heavy: QVQLQESGPGLVKPSETLSLTCAVSGHSISHDHAWSWVRQPPGEGLEWIGFISYSGITNYNPSLQGRVTISRDNSKNTLYLQMNSLRAEDTAVYYCARSLARTTAMDYWGEGTLVTVSSAKTTPPSVYPLAPGSAAQTNSMVTLGCLVKGYFPEPVTVTWNSGSLSSGVHTFPAVLQSDLYTLSSSVTVPSSTWPSETVTCNVAHPASSTKVDKKIVPRDCGCKPCICTVPEVSSEFIFPPKPKDVLTITLTPKVTCVVVDISKDDPEVQFSWFVDDVEVHTAQTQPREEQFNSTFRSVSELPIMHQDWLNGKEFKCRVNSAAFPAPIEKTISKTKGRPKAPQVYTIPPPKEQMAKDKVSLTCMITDFFPEDITVEWQWNGQPAENYKNTQPIMDTDGSYFVYSKLNVQKSNWEAGNTFTCSVLHEGLHNHHTEKSLSHSPGK light: not shown"
2.12,1.39,"MB132 (antibody, mouse IgG1, kappa, copies: 2 + 2) heavy: QVQLQESGPGLVKPSETLSLTCAVSGHSISHDHAWSWVRQPPGEGLEWIGFISYSGITNYNPSLQGRVTISRDNSKNTLYLQMNSLRAEDTAVYYCARSLARTTAMDYWGEGTLVTVSSAKTTPPSVYPLAPGSAAQTNSMVTLGCLVKGYFPEPVTVTWNSGSLSSGVHTFPAVLQSDLYTLSSSVTVPSSTWPSETVTCNVAHPASSTKVDKKIVPRDCGCKPCICTVPEVSSHFIFPPKPKDVLTITLTPKVTCVVVDISKDDPEVQFSWFVDDVEVHTAQTQPREEQFNSTFRSVSELPIMHQDWLNGKEFKCRVNSAAFPAPIEKTISKTKGRPKAPQVYTIPPPKEQMAKDKVSLTCMITDFFPEDITVEWQWNGQPAENYKNTQPIMDTDGSYFVYSKLNVQKSNWEAGNTFTCSVLHEGLHNHHTEKSLSHSPGK light: not shown"
